Experimental data reported in patent US20230233707A1 (University of Washington, published 2023).

B1: d2.4 (designed binder)
chain: MSDEEERNELIKRIREAAQRAREAAERTGDPRVRELARELARIAQIAFYLVLHDPSSSEVNEALKAVVKAIELAVRALEAAEKTGDPRVRELAREVVKAAVDVAEAAQAGLNDKLREVAEKALRLAKEALKEGDSTAAELAAEIARLAAKLAGDEDVLKKVKLVLEAIKLVKIVVENAKRKGDDSKEAAEAAVAAFLIVLAAAKLAGIASEEVLELAARLIKEVVENAQREGYDIAVAAIAAAVAFAVVAVAAAAADITSSEVLELAIRLIKEVVENAQREGYVILLAALAAAAAFVVVAAAAKRAGITSSETLKRAIEEIRKRVEEAQREGNDISEAARQAAEEFRKKAEELKGSLEHHHHHH
notes: Homodimer for D2 dihedral cages; C-terminal GS linker and 6xHis tag; also called d2.4 AbC-forming design
B2: i52.6 (designed binder)
chain: MSDEEERNELIKRIREAAQRAREAAERTGDPRVRELARELARLAQRAFYLVLHDPSSSDVNEALKLIVEAIEAAVRALEAAERTGDPKVREEARELVRRAVEAAEEVQRNPSSSEVNEKLKAIVVEIEVKVASLEAKEVTDPDKALKIAKKVIELALEAVKENPSTEALRAVLEAVRLASEVAKRVTDPDKALKIAKLVIELALEAVKEDPSTDALRAVLEAVRLASEVAKRVTDPDKALKIAKLVLELAAEAVKEDPSTDALRAAKEAERLATEVAKRVTDPKKAREIEMLVLKLQMEAILAETEEVKKEIEESKKRPQSESAKNLILIMQLLINQIRLLALQIRMLALQLQEGSLEHHHHHH
notes: Homopentamer for I52 icosahedral cages; C-terminal GS linker and 6xHis tag; also called i52.6 AbC-forming design
B3: i52.3 (designed binder)
chain: MSDEEERNELIKRIREAAQRAREAAERTGDPRVRELARELARLAQRAFYLVLHDPSSSDVNEALKLIVEAIEAAVRALEAAERAGDPELREDAREAVRLAVEAAEEVQRNPSSSTANLLLKAIVALAEALAAAANGDKEKFKKAAESALEIAKRVVEVASKEGDPEAVLEAAKVALRVAELAAKNGDKEVFKKAAESALEVAKRLVEVASKEGDPELVLEAAKVALRVAELAAKNGDKEVFQKAAASAVEVALRLTEVASKEGDSELETEAAKVITRVRELASKQGDAAVAILAETAEVKLEIEESKKRPQSESAKNLILIMQLLINQIRLLVLQIRMLDEQRQEGSLEHHHHHH
notes: Homopentamer for I52 icosahedral cages; C-terminal GS linker and 6xHis tag; also called i52.3 AbC-forming design
B4: d2.7 (designed binder)
chain: MSDEEERNELIKRIREAAQRAREAAERTGDPRVRELARELAKLAQIAFYLVLHDPSAKEVNLALELIVKAIELAVRALEEAEKTGDPHARELAREIVRLAVELARAVAEAAEEAKKQGNSELAEQVARAAQVALEVIKAAITAAKQGDRKAFRAALELVLEVIKAIEEAVKQGNPKKVAEVALKAELIRIVVQNAANKGDDADEAVEAARAAFEIVLAAAQLAGIDSEEVLELAARLIKEVVENAQREGYDIAVAAIAAAVAFAVVAVAAAAADITSSEVLELAIRLIKEVVENAVREGYVILLAALAAAAAFVVVAAAAKRAGITSSETLKRAIEEIRKRVEEAQREGNDISEAARQAAEEFRKKAEELKGSLEHHHHHH
notes: Homodimer for D2 dihedral cages; C-terminal GS linker and 6xHis tag; also called d2.7 AbC-forming design
B5: d2.3 (designed binder)
chain: MSDEEERNELIKRIREAAQRAREAAERTGDPRVRELARELARIAQIAFYLVLHDPSSSEVNEALKAVVKAIELAVRALEEAEKTGDPEVRELAREVVRLAVEVATATAAGENDTLRKVAERALRLAKEAAKRGDAKAAKQAAKIAKLAAANAGDEDVLKKVELVRLAIELVEIVVENAKRKGDDDKEAAEAALAAFRIVLAAAQLAGIASLEVLELALRLIKEVVENAQREGYDIAVAAIAAAVAFAVVAVAAAAADITSSEVLELAIRLIKEVVENAQREGYVILLAALAAAAAFVVVAAAAKRAGITSSETLKRAIEEIRKRVEEAQREGNDISEAARQAAEEFRKKAEELKGSLEHHHHHH
notes: also called d2.3 AbC-forming design

Biological target: T1, Fc from human IgG1 (human, UniProt P01857-1 104-330 = IgG part)
T1 construct: domain: Fc; also called human IgG1 Fc; IgG1 Fc protein
Assay: SEC, design mixed with human IgG1 Fc, overlaid on the single components [panel B]
Description: Synthetic genes encoding designed protein sequences appended with a C-terminal 6× histidine tag were expressed in E. coli. Designs were purified from clarified lysates using immobilized metal affinity chromatography (IMAC), and size exclusion chromatography (SEC) was used as a final purification step. […] Designs were then combined with human IgG1 Fc, and the assemblies were re-purified via SEC. Eight of these AbC-forming designs assembled with Fc into a species that eluted as a monodisperse peak at a volume consistent with the target nanoparticle molecular weight (FIG. 2a-b; 3 D2 dihedral, 2 T32 tetrahedral, 1 O42 octahedral, and 2 I52 icosahedral AbCs). For the i52.6 design, adding 100 mM L-arginine to the assembly buffer prevented aggregation after combining with Fc; all other designs readily self-assembled in Tris-buffered saline.
Designs that produced monodisperse SEC peaks around their expected retention volume were combined with Fc from human IgG1. Fc was produced recombinantly either using standard methods for expression in HEK293T cells or in E. coli (43). Cage components were incubated at 4° C. for at minimum 30 minutes. […] Fc-binding and cage formation were confirmed via SEC; earlier shifts in retention time (compared to either component run alone) show the formation of a larger structure. NS-EM was used as previously described to confirm the structures of designs that passed these steps.

| Binder | binding result |
| --- | --- |
| B1 | binds |
| B2 | binds |
| B3 | binds |
| B4 | binds |
| B5 | binds |
